The values below come from US20260015399A1 (Boehringer Ingelheim, published 2026).

Experiment [1] concerns the target T1, human NPY2 receptor (human, UniProt P49146 1-381).
T1 construct: whole, on cells; also called hNPY2-R; hNPY2R
T1 sequence (looked up): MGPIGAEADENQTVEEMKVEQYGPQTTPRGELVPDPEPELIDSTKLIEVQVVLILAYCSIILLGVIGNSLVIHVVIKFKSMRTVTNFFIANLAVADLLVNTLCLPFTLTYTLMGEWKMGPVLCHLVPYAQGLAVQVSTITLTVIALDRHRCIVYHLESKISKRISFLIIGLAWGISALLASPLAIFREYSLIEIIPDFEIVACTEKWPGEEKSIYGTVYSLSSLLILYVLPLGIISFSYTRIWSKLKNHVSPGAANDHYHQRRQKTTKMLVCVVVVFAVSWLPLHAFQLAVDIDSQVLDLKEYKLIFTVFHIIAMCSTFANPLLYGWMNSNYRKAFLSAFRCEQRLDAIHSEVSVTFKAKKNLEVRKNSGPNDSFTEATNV
The experiment can be described thus: RLB: displacement of 125I-PYY(1-36) from hNPY2R membranes. In general terms: Displacement assays read how much labelled ligand stays bound in the presence of the test substance.

Experiment [2] addresses T1, human NPY2 receptor. In words: cell-based or functional assay.
Another experiment deals with T2, human NPY5 receptor (human, UniProt Q15761 1-445).
T2 sequence (looked up): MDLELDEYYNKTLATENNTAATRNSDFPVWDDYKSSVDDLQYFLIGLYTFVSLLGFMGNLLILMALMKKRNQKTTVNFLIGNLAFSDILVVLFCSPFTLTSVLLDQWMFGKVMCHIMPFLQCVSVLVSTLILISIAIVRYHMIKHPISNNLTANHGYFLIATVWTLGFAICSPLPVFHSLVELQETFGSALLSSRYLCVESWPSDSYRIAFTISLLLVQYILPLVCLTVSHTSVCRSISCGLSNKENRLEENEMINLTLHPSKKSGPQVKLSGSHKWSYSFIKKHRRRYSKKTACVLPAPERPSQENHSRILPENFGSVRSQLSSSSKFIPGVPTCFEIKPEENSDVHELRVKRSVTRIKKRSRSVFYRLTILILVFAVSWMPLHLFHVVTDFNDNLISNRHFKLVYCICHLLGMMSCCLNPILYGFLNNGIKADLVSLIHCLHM
The experiment can be described thus: cell-based or functional assay.

*1 amine or outer side, *2 acyl side, *3 side chain or, on linkers, in order; H or OH if unused. Side-chain parts run from the residue outwards. The star is where a group is joined. C18 diacid = O=C(O)CCCCCCCCCCCCCCCCC(=O)*; γGlu = O=C(O)[C@H](CCC(=O)[*:2])N[*:1]; Isovaleryl = CC(C)CC(=O)*; Ahx = NCCCCCC(=O)O Where only a bound is given, the exact number is not on record here.

B1: Compound 52 (peptide)
peptide: Isovaleryl-APEK([Ahx-γGlu-C18 diacid])PEEDASPEEIQRYYVELRHYYNWLTRQRY-NH2
SMILES: CC[C@H](C)[C@H](NC(=O)[C@H](CCC(=O)O)NC(=O)[C@H](CCC(=O)O)NC(=O)[C@@H]1CCCN1C(=O)[C@H](CO)NC(=O)[C@H](C)NC(=O)[C@H](CC(=O)O)NC(=O)[C@H](CCC(=O)O)NC(=O)[C@H](CCC(=O)O)NC(=O)[C@@H]1CCCN1C(=O)[C@H](CCCCNC(=O)CCCCCNC(=O)CC[C@H](NC(=O)CCCCCCCCCCCCCCCCC(=O)O)C(=O)O)NC(=O)[C@H](CCC(=O)O)NC(=O)[C@@H]1CCCN1C(=O)[C@H](C)NC(=O)CC(C)C)C(=O)N[C@@H](CCC(N)=O)C(=O)N[C@@H](CCCNC(=N)N)C(=O)N[C@@H](Cc1ccc(O)cc1)C(=O)N[C@@H](Cc1ccc(O)cc1)C(=O)N[C@H](C(=O)N[C@@H](CCC(=O)O)C(=O)N[C@@H](CC(C)C)C(=O)N[C@@H](CCCNC(=N)N)C(=O)N[C@@H](Cc1c[nH]cn1)C(=O)N[C@@H](Cc1ccc(O)cc1)C(=O)N[C@@H](Cc1ccc(O)cc1)C(=O)N[C@@H](CC(N)=O)C(=O)N[C@@H](Cc1c[nH]c2ccccc12)C(=O)N[C@@H](CC(C)C)C(=O)N[C@H](C(=O)N[C@@H](CCCNC(=N)N)C(=O)N[C@@H](CCC(N)=O)C(=O)N[C@@H](CCCNC(=N)N)C(=O)N[C@@H](Cc1ccc(O)cc1)C(N)=O)[C@@H](C)O)C(C)C
B1 registered a Ki with human NPY2 receptor [1] of 2.39 nM. Besides, the “EC50, HTRF cAMP Gi assay” value was 0.176 nM with human NPY2 receptor [2] and greater than 5000 nM with human NPY5 receptor.

B2: Compound 91 (peptide)
peptide: Isovaleryl-APEK([Ahx-γGlu-C18 diacid])PEEDAEPEELQRYYTSLRHYYHWLTRQRY-NH2
SMILES: CC(C)CC(=O)N[C@@H](C)C(=O)N1CCC[C@H]1C(=O)N[C@@H](CCC(=O)O)C(=O)N[C@@H](CCCCNC(=O)CCCCCNC(=O)CC[C@H](NC(=O)CCCCCCCCCCCCCCCCC(=O)O)C(=O)O)C(=O)N1CCC[C@H]1C(=O)N[C@@H](CCC(=O)O)C(=O)N[C@@H](CCC(=O)O)C(=O)N[C@@H](CC(=O)O)C(=O)N[C@@H](C)C(=O)N[C@@H](CCC(=O)O)C(=O)N1CCC[C@H]1C(=O)N[C@@H](CCC(=O)O)C(=O)N[C@@H](CCC(=O)O)C(=O)N[C@@H](CC(C)C)C(=O)N[C@@H](CCC(N)=O)C(=O)N[C@@H](CCCNC(=N)N)C(=O)N[C@@H](Cc1ccc(O)cc1)C(=O)N[C@@H](Cc1ccc(O)cc1)C(=O)N[C@H](C(=O)N[C@@H](CO)C(=O)N[C@@H](CC(C)C)C(=O)N[C@@H](CCCNC(=N)N)C(=O)N[C@@H](Cc1c[nH]cn1)C(=O)N[C@@H](Cc1ccc(O)cc1)C(=O)N[C@@H](Cc1ccc(O)cc1)C(=O)N[C@@H](Cc1c[nH]cn1)C(=O)N[C@@H](Cc1c[nH]c2ccccc12)C(=O)N[C@@H](CC(C)C)C(=O)N[C@H](C(=O)N[C@@H](CCCNC(=N)N)C(=O)N[C@@H](CCC(N)=O)C(=O)N[C@@H](CCCNC(=N)N)C(=O)N[C@@H](Cc1ccc(O)cc1)C(N)=O)[C@@H](C)O)[C@@H](C)O
B2 gave an inhibitory constant (Ki) in the experiment with human NPY2 receptor [1] of 4.64 nM. Moreover, the “EC50, HTRF cAMP Gi assay” value came out at 0.219 nM with human NPY2 receptor [2] and 5000 nM in the experiment with human NPY5 receptor.

B3: Compound 76 (peptide)
peptide: Isovaleryl-APEK([Ahx-γGlu-C18 diacid])PEEDASPEELQRYYISLRHYYNWLTRQRY-NH2
SMILES: CC[C@H](C)[C@H](NC(=O)[C@H](Cc1ccc(O)cc1)NC(=O)[C@H](Cc1ccc(O)cc1)NC(=O)[C@H](CCCNC(=N)N)NC(=O)[C@H](CCC(N)=O)NC(=O)[C@H](CC(C)C)NC(=O)[C@H](CCC(=O)O)NC(=O)[C@H](CCC(=O)O)NC(=O)[C@@H]1CCCN1C(=O)[C@H](CO)NC(=O)[C@H](C)NC(=O)[C@H](CC(=O)O)NC(=O)[C@H](CCC(=O)O)NC(=O)[C@H](CCC(=O)O)NC(=O)[C@@H]1CCCN1C(=O)[C@H](CCCCNC(=O)CCCCCNC(=O)CC[C@H](NC(=O)CCCCCCCCCCCCCCCCC(=O)O)C(=O)O)NC(=O)[C@H](CCC(=O)O)NC(=O)[C@@H]1CCCN1C(=O)[C@H](C)NC(=O)CC(C)C)C(=O)N[C@@H](CO)C(=O)N[C@@H](CC(C)C)C(=O)N[C@@H](CCCNC(=N)N)C(=O)N[C@@H](Cc1c[nH]cn1)C(=O)N[C@@H](Cc1ccc(O)cc1)C(=O)N[C@@H](Cc1ccc(O)cc1)C(=O)N[C@@H](CC(N)=O)C(=O)N[C@@H](Cc1c[nH]c2ccccc12)C(=O)N[C@@H](CC(C)C)C(=O)N[C@H](C(=O)N[C@@H](CCCNC(=N)N)C(=O)N[C@@H](CCC(N)=O)C(=O)N[C@@H](CCCNC(=N)N)C(=O)N[C@@H](Cc1ccc(O)cc1)C(N)=O)[C@@H](C)O
In turn, B3 showed an inhibition constant Ki with human NPY2 receptor [1] of 2.68 nM. Besides, the figures for the “EC50, HTRF cAMP Gi assay” value with human NPY2 receptor [2] and with human NPY5 receptor were 0.172 nM and greater than 5000 nM, respectively.

B4: Compound 72 (peptide)
peptide: Isovaleryl-APEK([Ahx-γGlu-C18 diacid])PEADAEPEELQRYYVSLRHYYNWLTRQRY-NH2
SMILES: CC(C)CC(=O)N[C@@H](C)C(=O)N1CCC[C@H]1C(=O)N[C@@H](CCC(=O)O)C(=O)N[C@@H](CCCCNC(=O)CCCCCNC(=O)CC[C@H](NC(=O)CCCCCCCCCCCCCCCCC(=O)O)C(=O)O)C(=O)N1CCC[C@H]1C(=O)N[C@@H](CCC(=O)O)C(=O)N[C@@H](C)C(=O)N[C@@H](CC(=O)O)C(=O)N[C@@H](C)C(=O)N[C@@H](CCC(=O)O)C(=O)N1CCC[C@H]1C(=O)N[C@@H](CCC(=O)O)C(=O)N[C@@H](CCC(=O)O)C(=O)N[C@@H](CC(C)C)C(=O)N[C@@H](CCC(N)=O)C(=O)N[C@@H](CCCNC(=N)N)C(=O)N[C@@H](Cc1ccc(O)cc1)C(=O)N[C@@H](Cc1ccc(O)cc1)C(=O)N[C@H](C(=O)N[C@@H](CO)C(=O)N[C@@H](CC(C)C)C(=O)N[C@@H](CCCNC(=N)N)C(=O)N[C@@H](Cc1c[nH]cn1)C(=O)N[C@@H](Cc1ccc(O)cc1)C(=O)N[C@@H](Cc1ccc(O)cc1)C(=O)N[C@@H](CC(N)=O)C(=O)N[C@@H](Cc1c[nH]c2ccccc12)C(=O)N[C@@H](CC(C)C)C(=O)N[C@H](C(=O)N[C@@H](CCCNC(=N)N)C(=O)N[C@@H](CCC(N)=O)C(=O)N[C@@H](CCCNC(=N)N)C(=O)N[C@@H](Cc1ccc(O)cc1)C(N)=O)[C@@H](C)O)C(C)C
B4 showed an inhibition constant Ki with human NPY2 receptor [1] of 2.79 nM. The “EC50, HTRF cAMP Gi assay” value in the experiment with human NPY2 receptor [2] was 0.197 nM; with human NPY5 receptor, greater than 5000 nM.

B5: Compound 79 (peptide)
peptide: Isovaleryl-APEK([Ahx-γGlu-C18 diacid])PEEDASPEELQRYYVSLRHYYNWLTRQRY-NH2
SMILES: CC(C)CC(=O)N[C@@H](C)C(=O)N1CCC[C@H]1C(=O)N[C@@H](CCC(=O)O)C(=O)N[C@@H](CCCCNC(=O)CCCCCNC(=O)CC[C@H](NC(=O)CCCCCCCCCCCCCCCCC(=O)O)C(=O)O)C(=O)N1CCC[C@H]1C(=O)N[C@@H](CCC(=O)O)C(=O)N[C@@H](CCC(=O)O)C(=O)N[C@@H](CC(=O)O)C(=O)N[C@@H](C)C(=O)N[C@@H](CO)C(=O)N1CCC[C@H]1C(=O)N[C@@H](CCC(=O)O)C(=O)N[C@@H](CCC(=O)O)C(=O)N[C@@H](CC(C)C)C(=O)N[C@@H](CCC(N)=O)C(=O)N[C@@H](CCCNC(=N)N)C(=O)N[C@@H](Cc1ccc(O)cc1)C(=O)N[C@@H](Cc1ccc(O)cc1)C(=O)N[C@H](C(=O)N[C@@H](CO)C(=O)N[C@@H](CC(C)C)C(=O)N[C@@H](CCCNC(=N)N)C(=O)N[C@@H](Cc1c[nH]cn1)C(=O)N[C@@H](Cc1ccc(O)cc1)C(=O)N[C@@H](Cc1ccc(O)cc1)C(=O)N[C@@H](CC(N)=O)C(=O)N[C@@H](Cc1c[nH]c2ccccc12)C(=O)N[C@@H](CC(C)C)C(=O)N[C@H](C(=O)N[C@@H](CCCNC(=N)N)C(=O)N[C@@H](CCC(N)=O)C(=O)N[C@@H](CCCNC(=N)N)C(=O)N[C@@H](Cc1ccc(O)cc1)C(N)=O)[C@@H](C)O)C(C)C
Turning to B5, the affinity with human NPY2 receptor [1], expressed as Ki, was 1.54 nM. Further, the “EC50, HTRF cAMP Gi assay” value in the experiment with human NPY2 receptor [2] is 0.076 nM; with human NPY5 receptor, greater than 5000 nM.

In general, Ki refers to the equilibrium dissociation constant of an inhibitor or competing ligand from its target.
